Results on two compounds are retold here after article PMC3938430, “Biochemical Characterization of a Haloalkane Dehalogenase DadB from Alcanivorax dieselolei B-5” (PLoS ONE, 2014).

Common to all, as to experiment: steady-state kinetics, gas chromatography (FID)
In one data set the test system is T1, BrCCBr.
T1 construct: HLD-II subfamily, nucleophile D108
It counts as biochemical, Alloalcanivorax dieselolei. Particulars: 100 mM glycine buffer, pH 8.6, 37°C. The text has this:
(§1) steady-state kinetics, gas chromatography (FID) on DadB

For another data set, the system named is BrCCCBr. It counts as biochemical, Alloalcanivorax dieselolei. The conditions noted are these: 100 mM glycine buffer, pH 8.6, 37°C.
Excerpt: as §1

For the next data set, the system named is T2, C=C(C)CCl.
T2 construct: HLD-II subfamily, nucleophile D108
It counts as biochemical, Alloalcanivorax dieselolei. Particulars: 100 mM glycine buffer, pH 8.6, 37°C.
Excerpt: as §1

The test system of a further data set is T3, C=C(Cl)CCl.
T3 construct: HLD-II subfamily, nucleophile D108
It counts as biochemical, Alloalcanivorax dieselolei. The conditions noted are these: 100 mM glycine buffer, pH 8.6, 37°C.
Excerpt: as §1

A further data set relates to CCCCCl. It counts as biochemical, Alloalcanivorax dieselolei. Particulars: 100 mM glycine buffer, pH 8.6, 37°C.
Excerpt: as §1

Another data set deals with N#CCCCBr. It counts as biochemical, Alloalcanivorax dieselolei. Particulars: 100 mM glycine buffer, pH 8.6, 37°C, fit with substrate inhibition.
Excerpt: as §1

The target of a further data set is T4, DadB (Alloalcanivorax dieselolei, UniProt K0CAI2).
T4 construct: gene B5T_00392; HLD-II subfamily, nucleophile D108
It counts as biochemical. The conditions noted are these: 100 mM glycine buffer, pH 8.6, 37°C; substrate self-inhibition constant.
Excerpt: as §1

Usually Km stands for the concentration of substrate that gives half-maximal velocity. The term kcat denotes the maximal rate divided by the concentration of active sites. In general, kcat/Km refers to the second-order rate constant that governs catalysis at low substrate concentration.

Take DadB (Alloalcanivorax dieselolei B5): the Michaelis-Menten constant (Km) in the data set on BrCCBr turned out to be 8.70 ± 0.44 mM; in the data set with BrCCCBr it was 0.82 ± 0.04 mM; in the data set on C=C(C)CCl, 11.33 ± 0.99 mM; with C=C(Cl)CCl, 15.06 ± 1.37 mM; in the data set on CCCCCl it was 4.88 ± 0.35 mM; with N#CCCCBr, 8.47 ± 1.27 mM. The kcat in the data set on BrCCBr is 17.9 ± 0.5 s⁻¹; in the data set with BrCCCBr it was 13.4 ± 0.99 s⁻¹; with C=C(C)CCl, 34.3 ± 1.99 s⁻¹; in the data set with C=C(Cl)CCl it was 20.1 ± 1.09 s⁻¹; in the data set with CCCCCl, 1.17 ± 0.1 s⁻¹; in the data set on N#CCCCBr, 30.8 ± 2.49 s⁻¹. Also, the kcat/Km in the data set with BrCCBr worked out at 2060 M⁻¹ s⁻¹; in the data set with BrCCCBr it was 16400 M⁻¹ s⁻¹; in the data set with C=C(C)CCl, 3020 M⁻¹ s⁻¹; with C=C(Cl)CCl it was 1330 M⁻¹ s⁻¹; with CCCCCl, 240 M⁻¹ s⁻¹; in the data set with N#CCCCBr, 3640 M⁻¹ s⁻¹.

Take `N#CCCCBr` [4-bromobutanenitrile]: the “k i” value at DadB came to 17.93 ± 1.97 mM.
